# Experimental data as given in PMC5625350 (Nature structural & molecular biology, 2017).
# Legend:
# [1] = target: the molecule itself; assay: SEC
# [2] = target: the molecule itself; assay: cross-linking
# [3] = target: the molecule itself; assay: SAXS
# [4] = target: Rad50 WT (in MRN);Mre11;Nbs1 (Homo sapiens;Homo sapiens;Homo sapiens, UniProt Q92878;P49959;O60934 1-1312;1-708;1-754, ||); assay: EMSA
# [5] = target: Rad50 dCC (in MRN);Mre11;Nbs1 (Homo sapiens;Homo sapiens;Homo sapiens, UniProt Q92878;P49959;O60934 1-1312;1-708;1-754, del614-668;del702-750||); assay: EMSA
# [6] = target: the molecule itself; assay: crystal structure
binder,measurement,setting,value
"Rad50ΔCC (Rad50HCC182 with residues 614-668 and 702-750 deleted) (domain or fragment, human, UniProt Q92878 585-766, looked up) KEINQTRDRLAKLNKELASSEQNKNHINNFITQLTDENQSCCPVCQRVFQTEAELQEVISDLRNKLQNVNRDIQRLKN",binding result,[1],binds
"Rad50ΔCC K599C (domain or fragment, human, UniProt Q92878 585-766, looked up) KEINQTRDRLAKLNCELASSEQNKNHINNFITQLTDENQSCCPVCQRVFQTEAELQEVISDLRNKLQNVNRDIQRLKN",binding result,[2],binds
"HsRad50HCC construct that contains the two interfaces (residues 635 to 730) (domain or fragment, human, UniProt Q92878 635-730, looked up) SQDFESDLDRLKEEIEKSSKQRAMLAGATAVYSQFITQLTDENQSCCPVCQRVFQTEAELQEVISDLQSKLRLAPDKLKSTESELKKKEKRRDEML",binding result,[3],binds
83-mer dsDNA (dsDNA) DNA 1: TTGATAAGAGGTCATTTTTGCGGATGGCTTAGAGCTTAATTGCTGAATCTGGTGCTGTAGCTCAACATGTTTTAAATATGCAA DNA 2: TTGCATATTTAAAACATGTTGAGCTACAGCACCAGATTCAGCAATTAAGCTCTAAGCCATCCGCAAAAATGACCTCTTATCAA,binding result,[4],binds
same,binding result,[5],binds
"human Rad50 hook and coiled-coil domain, HsRad50HCC182 (residues 585 to 766) (domain or fragment, UniProt Q92878 585-766, looked up) KEINQTRDRLAKLNKELASSEQNKNHINNELKRKEEQLSSYEDKLFDVCGSQDFESDLDRLKEEIEKSSKQRAMLAGATAVYSQFITQLTDENQSCCPVCQRVFQTEAELQEVISDLQSKLRLAPDKLKSTESELKKKEKRRDEMLGLVPMRQSIIDLKEKEIPELRNKLQNVNRDIQRLKN",binding result,[6],binds
"HsRad50HCC182 S738C (domain or fragment, human, UniProt Q92878 585-766, looked up) KEINQTRDRLAKLNKELASSEQNKNHINNELKRKEEQLSSYEDKLFDVCGSQDFESDLDRLKEEIEKSSKQRAMLAGATAVYSQFITQLTDENQSCCPVCQRVFQTEAELQEVISDLQSKLRLAPDKLKSTESELKKKEKRRDEMLGLVPMRQCIIDLKEKEIPELRNKLQNVNRDIQRLKN",binding result,[2],binds
"HsRad50HCC182 K599C (domain or fragment, human, UniProt Q92878 585-766, looked up) KEINQTRDRLAKLNCELASSEQNKNHINNELKRKEEQLSSYEDKLFDVCGSQDFESDLDRLKEEIEKSSKQRAMLAGATAVYSQFITQLTDENQSCCPVCQRVFQTEAELQEVISDLQSKLRLAPDKLKSTESELKKKEKRRDEMLGLVPMRQSIIDLKEKEIPELRNKLQNVNRDIQRLKN",binding result,[2],binds
"Rad50-48 (S679R, P682R) Rad50HCC182 K599C (domain or fragment, human, UniProt Q92878 585-766, looked up) KEINQTRDRLAKLNCELASSEQNKNHINNELKRKEEQLSSYEDKLFDVCGSQDFESDLDRLKEEIEKSSKQRAMLAGATAVYSQFITQLTDENQRCCRVCQRVFQTEAELQEVISDLQSKLRLAPDKLKSTESELKKKEKRRDEMLGLVPMRQSIIDLKEKEIPELRNKLQNVNRDIQRLKN",binding result,[2],binds
